Assay [1] concerns the target T1, Kv1.3 (Homo sapiens, UniProt P22001). Put plainly: patch-clamp dose-response.
The target of assay [2] is T2, Kv1.2 (Homo sapiens, UniProt P16389). Description: patch-clamp dose-response.
The target of assay [3] is T1, Kv1.3. Put plainly: patch-clamp kinetics (koff/kon).
Assay [4] has as its target T2, Kv1.2. Put plainly: patch-clamp kinetics (koff/kon).

Ends that are not written are not given here.

T2 sequence (P16389 whole entry): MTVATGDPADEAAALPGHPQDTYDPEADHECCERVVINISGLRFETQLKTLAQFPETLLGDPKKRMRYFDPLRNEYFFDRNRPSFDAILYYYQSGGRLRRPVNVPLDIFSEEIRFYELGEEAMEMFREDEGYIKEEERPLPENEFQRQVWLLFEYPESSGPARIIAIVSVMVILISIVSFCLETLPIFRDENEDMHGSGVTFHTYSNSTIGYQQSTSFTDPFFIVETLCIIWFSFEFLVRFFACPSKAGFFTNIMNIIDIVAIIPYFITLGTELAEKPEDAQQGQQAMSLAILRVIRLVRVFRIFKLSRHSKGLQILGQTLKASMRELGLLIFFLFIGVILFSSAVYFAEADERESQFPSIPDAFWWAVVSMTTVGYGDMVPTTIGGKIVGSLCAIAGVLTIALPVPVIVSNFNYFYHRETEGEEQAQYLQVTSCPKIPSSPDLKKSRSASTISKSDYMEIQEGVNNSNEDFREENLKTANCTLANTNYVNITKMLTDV
T1 sequence (P22001 whole entry): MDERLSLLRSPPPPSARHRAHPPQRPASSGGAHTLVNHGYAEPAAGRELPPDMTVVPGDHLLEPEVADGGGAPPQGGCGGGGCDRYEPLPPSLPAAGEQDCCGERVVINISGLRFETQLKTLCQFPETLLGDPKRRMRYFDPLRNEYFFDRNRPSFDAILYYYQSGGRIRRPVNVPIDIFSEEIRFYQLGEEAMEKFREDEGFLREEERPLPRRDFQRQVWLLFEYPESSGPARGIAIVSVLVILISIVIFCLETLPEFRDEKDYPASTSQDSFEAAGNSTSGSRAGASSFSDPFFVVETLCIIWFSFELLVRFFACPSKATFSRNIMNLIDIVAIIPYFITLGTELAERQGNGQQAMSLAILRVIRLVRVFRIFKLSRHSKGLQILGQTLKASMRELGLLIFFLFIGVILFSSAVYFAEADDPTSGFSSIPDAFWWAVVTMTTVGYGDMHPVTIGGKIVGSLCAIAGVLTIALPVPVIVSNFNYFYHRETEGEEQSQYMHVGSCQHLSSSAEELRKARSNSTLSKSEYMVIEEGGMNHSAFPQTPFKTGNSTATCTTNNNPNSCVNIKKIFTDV

B1: Margatoxin (TrMgTx) (peptide)
chain: {Glu-Phe-H2N-H2N-H2N-H2N-H2N-H2N}-LQIEGRTIINVKCTSPKQCLPPCKAQFGQSAGAKCMNGKCKCYPH
modifications: not fully specified; ends and bridges not checked
Turning to B1, the Kd with Kv1.3 [1] was found to be 0.086 nM; with Kv1.2 [2] it was 0.064 nM; in the assay with Kv1.3 [3], 0.0839 nM; with Kv1.2 [4], 0.0623 nM.

B2: Margatoxin (UrMgTx) (peptide)
chain: TIINVKCTSPKQCLPPCKAQFGQSAGAKCMNGKCKCYPH
Turning to B2, the Kd worked out at 0.05 nM with Kv1.3 [1], 0.014 nM in the assay with Kv1.2 [2], 0.0522 nM with Kv1.3 [3] and 0.015 nM in the assay with Kv1.2 [4].

Source of the values: publication PMC8511391 (2021).
